Here are results for two molecules from patent publication US20230035659A1, “Compositions and Methods for TTR Gene Editing and Treating ATTR Amyloidosis Comprising a Corticosteroid or Use Thereof” (Intellia Therapeutics, Inc., priority 2019, published 2023).

Strand notation (5' to 3'): a small letter for the sugar, then the base; units joined by * are phosphorothioate-linked, units joined directly phosphodiester-linked; [ ] holds rarer units or linkages, { } end groups; capitals alone tell only the bases. m = 2'-O-methyl; r = 2'-OH (RNA)

Series [1] has as its system potential off-target genomic sites. In words: Off-target analysis by oligo insertion based assay in primary human hepatocytes (sgRNAs). The format is cell-based. Particulars: 100 ng Cas9 mRNA, 25 nM sgRNA, 12.5 nM donor oligo, 48 h.
Series [2] concerns TTR on-target site and potential off-target sites. In words: Targeted amplicon sequencing of on-target and potential off-target sites in primary human hepatocytes treated with LNPs. The format is cell-based. Particulars: PHH; for highest concentration (of gRNA) at which the potential off-target sites were no longer detected: LNP 11 point dose response 0.001-46.55 nM gRNA; for indel rate observed at the on-target site / number of potential off-target sites identified by the oligo insertion assay at which indels were detected (low levels) / indels at the in silico predicted off-target sites: LNP with 100 ng Cas9 mRNA (SEQ ID NO: 1); for indel rate observed at the on-target site: near-saturating dose of LNP; for number of potential off-target sites identified by the oligo insertion assay at which indels were detected (low levels): near-saturating dose; for number of potential off-target sites identified by the oligo insertion assay at which indels were detected (low levels) / indels at the in silico predicted off-target sites / Indel Frequency, On-Target site: targeted amplicon sequencing; for on-target indel rate at the highest gRNA concentration without detected off-target sites: LNP, 0.57 nM (G000480) and 15.51 nM (G000486) gRNA. The method, then: The HEK293_Cas9 cells used in Example 5 for detecting potential off-targets constitutively overexpress Cas9, leading to a higher number of potential off-target “hits” as compared to a transient delivery paradigm in various cell types. […] Accordingly, potential off-target sites identified by an oligo insertion method as used in Example 5 may be validated using targeted sequencing of the identified potential off-target sites.
In one approach, primary hepatocytes are treated with LNPs comprising Cas9 mRNA and a sgRNA of interest (e.g., a sgRNA having potential off-target sites for evaluation). The primary hepatocytes are then lysed and primers flanking the potential off-target site(s) are used to generate an amplicon for NGS analysis. Identification of indels at a certain level may validate potential off-target site, whereas the lack of indels found at the potential off-target site may indicate a false positive in the HEK293_Cas9 cell assay.
Following the identification of potential off-target sites in […] via the oligo insertion assay, certain potential sites were further evaluated by targeted amplicon sequencing, e.g., as described in Example 6. In addition to the potential off-target sites identified by the oligo insertion strategy, additional potential off-target sites identified by in silico prediction were included in the analysis.
To this end, PHH were treated with LNPs comprising 100 ng of Cas9 mRNA (SEQ ID NO:1) and the gRNA of interest at 14.68 nM (in a 1:1 ratio by weight), as described in Example 4. The LNPs were prepared using the cross-flow procedure described above and purified and concentrated using PD-10 columns and Amicon centrifugal filter units, respectively. The LNPs were formulated with an N:P ratio of 6.0 and contained Lipid A, Cholesterol, DSPC, and PEG2k-DMG in a 50:38:9:2 molar ratio, respectively. Following LNP treatment, isolated genomic DNA was analyzed by NGS (e.g., as described in Examples 1 and 6) to determine whether indels could be detected at the potential off-target site, which would be indicative of a Cas9-mediated cleavage event. Tables 33 and 34 show the potential off-target sites that were evaluated for the gRNAs G000480 and G000486, respectively.
As shown in FIGS. 21A-B and 22A-B and Table 35 below, indels were detected at low levels for only two of the potential off-target sites identified by the oligo insertion assay for G000480, and only one for G000486. […] Further, indels were only detected at these sites using a near-saturating dose of LNP, as the indel rates observed at the on-target sites for G000480 and G000486 were ˜97% and ˜91%, respectively (See Table 35).
A dose response assay was then performed in order to determine the highest dose of LNP in which no off-targets were detected. PHH were treated with LNPs comprising either G000480 or G000486 as described in Example 4. The doses ranged across 11 points with respect to gRNA concentration (0.001 nM, 0.002 nM, 0.007 nM, 0.02 nM, 0.06 nM, 0.19 nM, 0.57 nM, 1.72 nM, 5.17 nM, 15.51 nM, and 46.55 nM).

The mark [3] stands for this setting: LNP with 100 ng Cas9 mRNA and 14.68 nM gRNA.

B1: G000486: TTR sgRNA modified sequence, Human, SEQ ID NO: 93; guide sequence of CR003339 (nucleic acid)
guide: mA*mC*mA*rCrArArArUrArCrCrArGrUrCrCrArGrCrArGrUrUrUrUrArGrAmGmCmUmAmGmAmAmAmUmAmGmCrArArGrUrUrArArArArUrArArGrGrCrUrArGrUrCrCrGrUrUrArUrCrAmAmCmUmUmGmAmAmAmAmAmGmUmGmGmCmAmCmCmGmAmGmUmCmGmGmUmGmCmU*mU*mU*mU
B1: the “# Sites in PHH (off-target integration sites detected)” value in series [1] turned out to be 0. Besides, in series [2], the “highest concentration (of gRNA) at which the potential off-target sites were no longer detected” value was found to be 15.51 nM, the “indel rate observed at the on-target site” value was about 91%, the “number of potential off-target sites identified by the oligo insertion assay at which indels were detected (low levels)” value is recorded as “one” and the “indels at the in silico predicted off-target sites” value was “No indels were detected”. Also, the “on-target indel rate at the highest gRNA concentration without detected off-target sites” value in series [2] is recorded as 89.50%. Moreover, the “Indel Frequency, Off-Target site INS-OT.4 (of G000486)” value in series [2] (LNP with 100 ng Cas9 mRNA and 14.68 nM gRNA, G000486 site INS-OT.4 (chr5: 91397023-91397043)) was 0.47%. Further, the “Indel Frequency, On-Target site” value in series [2] (setting [3]) is given as 91.33%.

B2: G000480: TTR sgRNA modified sequence, Human, SEQ ID NO: 87; guide sequence of CR003353 (nucleic acid)
guide: mA*mA*mA*rGrGrCrUrGrCrUrGrArUrGrArCrArCrCrUrGrUrUrUrUrArGrAmGmCmUmAmGmAmAmAmUmAmGmCrArArGrUrUrArArArArUrArArGrGrCrUrArGrUrCrCrGrUrUrArUrCrAmAmCmUmUmGmAmAmAmAmAmGmUmGmGmCmAmCmCmGmAmGmUmCmGmGmUmGmCmU*mU*mU*mU
As for B2, the “# Sites in PHH (off-target integration sites detected)” value in series [1] is reported as 2. Also, in series [2], the “highest concentration (of gRNA) at which the potential off-target sites were no longer detected” value amounted to 0.57 nM, the “indel rate observed at the on-target site” value is about 97%, the “number of potential off-target sites identified by the oligo insertion assay at which indels were detected (low levels)” value is reported as “two” and the “indels at the in silico predicted off-target sites” value is recorded as “No indels were detected”. Further, the “on-target indel rate at the highest gRNA concentration without detected off-target sites” value in series [2] is 84.60%. For the same molecule, the “Indel Frequency, Off-Target site INS-OT.2” value in series [2] (LNP with 100 ng Cas9 mRNA and 14.68 nM gRNA, G000480 site INS-OT.2 (chr2: 192658562-192658582)) worked out at 1.43%. Besides, in series [2] (LNP with 100 ng Cas9 mRNA and 14.68 nM gRNA, G000480 site INS-OT.4 (chr20: 9216118-9216138)), the “Indel Frequency, Off-Target site INS-OT.4 (of G000480)” value is given as 0.97%. In addition, the “Indel Frequency, On-Target site” value in series [2] (setting [3]) was 97.33%.
